Measurements: article PMC11417369, “DNA sequence and chromatin differentiate sequence-specific transcription factor binding in the human malaria parasite Plasmodium falciparum”

T1: HDP1 homeodomain-like (Plasmodium falciparum, UniProt Q8IKH4 2990-3078)
T1 sequence: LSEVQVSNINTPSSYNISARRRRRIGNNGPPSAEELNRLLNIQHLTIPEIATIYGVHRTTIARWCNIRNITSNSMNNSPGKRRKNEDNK


The binders below were run against T1, HDP1 homeodomain-like (assay: gcPBM; about 25 ug protein; PBS, 1% milk, 0.2 mg/ml BSA, salmon testes DNA, 0.03% Triton X-100). Details: tags: N-terminal GST (pGEX-4T-1), kept; chain copies: 2; label: surface-attached array probe.

| Binder | binding signal |
| --- | --- |
| GTGCAC_site10009 (dsDNA) DNA 1: AAATATAGAATACATGTGCACATAATATATATATAT DNA 2: ATATATATATATTATGTGCACATGTATTCTATATTT | 11.3 ln median PBM intensity, better of two orientations |
| GTGCAC_site9801 (dsDNA) DNA 1: ATCATCTTTATTCAAGTGCACTGAAAATTTTTTATA DNA 2: TATAAAAAATTTTCAGTGCACTTGAATAAAGATGAT | 11.2 ln median PBM intensity, better of two orientations |
| GTGCAC_site10605 (dsDNA) DNA 1: GAAGTAGATGGAAAAGTGCACTGTAATGGTTATATT DNA 2: AATATAACCATTACAGTGCACTTTTCCATCTACTTC | 10.6 ln median PBM intensity, better of two orientations |
| GTGCAC_site10127 (dsDNA) DNA 1: ACATATAAATATTGTGTGCACACACATAATATATAT DNA 2: ATATATATTATGTGTGTGCACACAATATTTATATGT | 10.5 ln median PBM intensity, better of two orientations |
| GTGCAC_site9657 (dsDNA) DNA 1: CATAATTTAAAAAAGGTGCAAAATGGATAATATATA DNA 2: TATATATTATCCATTTTGCACCTTTTTTAAATTATG | 10.1 ln median PBM intensity, better of two orientations |
| GTGCAC_site10407 (dsDNA) DNA 1: CCTTTTTATCTTTTTGTGCACAGACCTTTTTTAAAT DNA 2: ATTTAAAAAAGGTCTGTGCACAAAAAGATAAAAAGG | 11.2 ln median PBM intensity, better of two orientations |
| GTGCAC_site9416 (dsDNA) DNA 1: TTTCAAAAAAATAATGTGCACATTAGAAAATAAATA DNA 2: TATTTATTTTCTAATGTGCACATTATTTTTTTGAAA | 10.5 ln median PBM intensity, better of two orientations |
| GTGCAC_site10210 (dsDNA) DNA 1: ATTGAATATGGATATGTGCACATATGTATATAAGTA DNA 2: TACTTATATACATATGTGCACATATCCATATTCAAT | 11.1 ln median PBM intensity, better of two orientations |
| GTGCAC_site10777 (dsDNA) DNA 1: ATAATATATACGTGTGTGCACATGACAAAAGCATAT DNA 2: ATATGCTTTTGTCATGTGCACACACGTATATATTAT | 11.1 ln median PBM intensity, better of two orientations |
| GTGCAC_site10701 (dsDNA) DNA 1: TAATACATAAATAATGTGCACATGGAAATATATCTT DNA 2: AAGATATATTTCCATGTGCACATTATTTATGTATTA | 11.2 ln median PBM intensity, better of two orientations |
| GTGCAC_site9742 (dsDNA) DNA 1: GAAAAATTTTTATATGTGCACATGTTATATATAATT DNA 2: AATTATATATAACATGTGCACATATAAAAATTTTTC | 11.2 ln median PBM intensity, better of two orientations |
| GTGCAC_site9637 (dsDNA) DNA 1: GGAAAATATGTTTGTGTGCACAGCTAGCTATTTGTA DNA 2: TACAAATAGCTAGCTGTGCACACAAACATATTTTCC | 11 ln median PBM intensity, better of two orientations |
| GTGCAC_site10550 (dsDNA) DNA 1: TAAACGTTAGTATGTGTGCACATTAGTAATTTAAAA DNA 2: TTTTAAATTACTAATGTGCACACATACTAACGTTTA | 10.6 ln median PBM intensity, better of two orientations |
| GTGCAC_site10480 (dsDNA) DNA 1: GGTATTTATGGACGCGTGCACACACATATGAACAAA DNA 2: TTTGTTCATATGTGTGTGCACGCGTCCATAAATACC | 10.4 ln median PBM intensity, better of two orientations |
| GTGCAC_site10307 (dsDNA) DNA 1: AAATAATTAGAAATAGTGCACATAATTAAGGGATAC DNA 2: GTATCCCTTAATTATGTGCACTATTTCTAATTATTT | 10.9 ln median PBM intensity, better of two orientations |
| GTGCAC_site10384 (dsDNA) DNA 1: TTTTCTTGGTTCAGTGTGCACTTATATATATATATA DNA 2: TATATATATATATAAGTGCACACTGAACCAAGAAAA | 10.2 ln median PBM intensity, better of two orientations |
| GTGCAC_site9584 (dsDNA) DNA 1: TGTAATAATATTTATGTGCACATATATTAAACTATA DNA 2: TATAGTTTAATATATGTGCACATAAATATTATTACA | 11.1 ln median PBM intensity, better of two orientations |
| GTGCAC_site10138 (dsDNA) DNA 1: TATTTATAAATATGTGTGCACAATTTATTTTATAAT DNA 2: ATTATAAAATAAATTGTGCACACATATTTATAAATA | 11 ln median PBM intensity, better of two orientations |
| GTGCAC_site9859 (dsDNA) DNA 1: TACATAAATATATGTGTGCACAATTTCGTATATTTA DNA 2: TAAATATACGAAATTGTGCACACATATATTTATGTA | 11.1 ln median PBM intensity, better of two orientations |
| GTGCAC_site10696 (dsDNA) DNA 1: AATGACTACATAATAGTGCAATATTAAAGAAAATTA DNA 2: TAATTTTCTTTAATATTGCACTATTATGTAGTCATT | 10.4 ln median PBM intensity, better of two orientations |
| GTGCAC_site10120 (dsDNA) DNA 1: AAAAACAAACTGTGCATGCACCAAAAAAAAAAAAAA DNA 2: TTTTTTTTTTTTTTGGTGCATGCACAGTTTGTTTTT | 10.3 ln median PBM intensity, better of two orientations |
| GTGCAC_site9621 (dsDNA) DNA 1: TATATATATAAGATTGTGCACATTAAAATGATAGAA DNA 2: TTCTATCATTTTAATGTGCACAATCTTATATATATA | 11.1 ln median PBM intensity, better of two orientations |

| Binder | binding signal |
| --- | --- |
| GTGCAC_site10060 (dsDNA) DNA 1: TCTTTTTCTTCTTATGTGCACATCAATTATGCTTCT DNA 2: AGAAGCATAATTGATGTGCACATAAGAAGAAAAAGA | 10.8 ln median PBM intensity, better of two orientations |
| GTGCAC_site10419 (dsDNA) DNA 1: TTTTCTTTTTTTTTTGTGCACATAATATATAATTAT DNA 2: ATAATTATATATTATGTGCACAAAAAAAAAAGAAAA | 11.2 ln median PBM intensity, better of two orientations |
| GTGCAC_site10288 (dsDNA) DNA 1: ATAGATCCTAATGTTGTGCACATGTAAATTAATATA DNA 2: TATATTAATTTACATGTGCACAACATTAGGATCTAT | 11 ln median PBM intensity, better of two orientations |
| GTGCAC_site9761 (dsDNA) DNA 1: ACATAATATACTATTGTGCACATATATATATATATA DNA 2: TATATATATATATATGTGCACAATAGTATATTATGT | 11.2 ln median PBM intensity, better of two orientations |
| GTGCAC_site9799 (dsDNA) DNA 1: TATTATAATATATTTGTGCACATAATATCTCCGCTA DNA 2: TAGCGGAGATATTATGTGCACAAATATATTATAATA | 11.1 ln median PBM intensity, better of two orientations |
| GTGCAC_site9990 (dsDNA) DNA 1: TATATATATGTATATGTGCACAGTTTTCTTATTAAA DNA 2: TTTAATAAGAAAACTGTGCACATATACATATATATA | 11.1 ln median PBM intensity, better of two orientations |
| GTGCAC_site10422 (dsDNA) DNA 1: ATCAATAAATAAAATGTGCACATAATATATTAATAC DNA 2: GTATTAATATATTATGTGCACATTTTATTTATTGAT | 11.1 ln median PBM intensity, better of two orientations |
| GTGCAC_site10596 (dsDNA) DNA 1: AAAATTTATAGTATGGTGCATAAAAATATATATATA DNA 2: TATATATATATTTTTATGCACCATACTATAAATTTT | 10.6 ln median PBM intensity, better of two orientations |
| GTGCAC_site10327 (dsDNA) DNA 1: AAATTATGCATCGAGGTGCGTCTTAAAATATAGTGG DNA 2: CCACTATATTTTAAGACGCACCTCGATGCATAATTT | 11.2 ln median PBM intensity, better of two orientations |
| GTGCAC_site10725 (dsDNA) DNA 1: TTTTGTTATTTTGAAGTGCACTTTCCACTTAATATA DNA 2: TATATTAAGTGGAAAGTGCACTTCAAAATAACAAAA | 10.7 ln median PBM intensity, better of two orientations |
| GTGCAC_site10212 (dsDNA) DNA 1: TATATATATATATATGTGCACATATATATGATATTA DNA 2: TAATATCATATATATGTGCACATATATATATATATA | 10.3 ln median PBM intensity, better of two orientations |
| GTGCAC_site10106 (dsDNA) DNA 1: ATATTTTATATATTTGTGCACAATATTATAATATAT DNA 2: ATATATTATAATATTGTGCACAAATATATAAAATAT | 10.8 ln median PBM intensity, better of two orientations |
| GTGCAC_site9896 (dsDNA) DNA 1: TCTTACGGATTCATTGTGCACATATATATATATATA DNA 2: TATATATATATATATGTGCACAATGAATCCGTAAGA | 11.1 ln median PBM intensity, better of two orientations |
| GTGCAC_site9497 (dsDNA) DNA 1: TAATTGAGCAAATGAGTGCACAGCATAAAGTATAGT DNA 2: ACTATACTTTATGCTGTGCACTCATTTGCTCAATTA | 10.7 ln median PBM intensity, better of two orientations |
| GTGCAC_site9651 (dsDNA) DNA 1: AATCGATAAAATGTTGTGCACATATTTTTATATTTA DNA 2: TAAATATAAAAATATGTGCACAACATTTTATCGATT | 11.2 ln median PBM intensity, better of two orientations |
| GTGCAC_site10672 (dsDNA) DNA 1: AATTTCAAATTGTATGTGCACATGTAGAAGTACTTT DNA 2: AAAGTACTTCTACATGTGCACATACAATTTGAAATT | 11.1 ln median PBM intensity, better of two orientations |
| GTGCAC_site10133 (dsDNA) DNA 1: AATTTATATAATTTTGTGCACAATATTCATGTATAT DNA 2: ATATACATGAATATTGTGCACAAAATTATATAAATT | 11.2 ln median PBM intensity, better of two orientations |
| GTGCAC_site9405 (dsDNA) DNA 1: TAAAAATAGGAGTGTGTGCACATAAATTATATACTA DNA 2: TAGTATATAATTTATGTGCACACACTCCTATTTTTA | 11.2 ln median PBM intensity, better of two orientations |
| GTGCAC_site10617 (dsDNA) DNA 1: GAGGTCTTTTTTAATGTGCACATATATATATATATA DNA 2: TATATATATATATATGTGCACATTAAAAAAGACCTC | 11 ln median PBM intensity, better of two orientations |
| GTGCAC_site10602 (dsDNA) DNA 1: GTTGTATACAATAATGTGCACATATTAATTTGAACT DNA 2: AGTTCAAATTAATATGTGCACATTATTGTATACAAC | 11.2 ln median PBM intensity, better of two orientations |
| GTGCAC_site9581 (dsDNA) DNA 1: TTATTACACACATATGTGCACATATAAAAGTACACG DNA 2: CGTGTACTTTTATATGTGCACATATGTGTGTAATAA | 11.1 ln median PBM intensity, better of two orientations |
| GTGCAC_site10136 (dsDNA) DNA 1: ATGATCTGTTTGTTTGTGCACATATATATATATTAA DNA 2: TTAATATATATATATGTGCACAAACAAACAGATCAT | 11.3 ln median PBM intensity, better of two orientations |
